This is an account of results in paper PMC7223222.

The term stoichiometry N denotes a count of units in the complex or per binding partner.

This test concerns the target pmE2:pFc2 fusion protein (transmembrane domain-deleted classical swine fever virus envelope glycopro (classical swine fever virus)). Kind of test: SEC. (In gel filtration, larger molecules generally elute earlier.)

Substance “pmE2:pFc2 fusion protein (transmembrane domain-deleted classical swine fever virus envelope glycopro (Fc fusion)” had a stoichiometry N of 3.
